Reference: US20260125457A1 (Janssen / Centocor, published 2026)

Legend:
[1] = target: T1, CD3 on primary human pan T cells (human, UniProt P07766 23-207); test: flow cytometry on pan CD3 T cells, 1 h at 37 C, AF647 secondary antibody, Geometric Mean
T1 construct: whole, on cells; also called CD3e; CD3ε
Method: FIG. 22 depicts binding of different CALRmutxCD3 bispecific antibodies to pan CD3 T cells. Flow cytometry was used to evaluate CALRmutxCD3 binding to pan CD3 T cells in vitro, by 1 hour 37° C. incubation, with subsequent incubation with secondary AF647-labeled antibody. Geometric mean fluorescence intensity of AF647 was measured to determine antibody binding.
Flow cytometry was used to evaluate the CD3 arm binding of CALRmutxCD3 antibodies listed in Table 21 to CD3+ pan T cells from healthy human donor. CALRmutxCD3 were tested after 1 hour 37° C. incubation with pan T cells.

[2] = target: T2, wild-type calreticulin (CALRwt) expressed with MPL in engineered cancer cells (UniProt P27797 18-417, limits assumed); test: flow cytometry, ELF-153 and OCI-M2 MPL CALRwt cells
T2 construct: whole, on cells; also called OCI-M2 MPL CALRwt
T2 sequence (looked up): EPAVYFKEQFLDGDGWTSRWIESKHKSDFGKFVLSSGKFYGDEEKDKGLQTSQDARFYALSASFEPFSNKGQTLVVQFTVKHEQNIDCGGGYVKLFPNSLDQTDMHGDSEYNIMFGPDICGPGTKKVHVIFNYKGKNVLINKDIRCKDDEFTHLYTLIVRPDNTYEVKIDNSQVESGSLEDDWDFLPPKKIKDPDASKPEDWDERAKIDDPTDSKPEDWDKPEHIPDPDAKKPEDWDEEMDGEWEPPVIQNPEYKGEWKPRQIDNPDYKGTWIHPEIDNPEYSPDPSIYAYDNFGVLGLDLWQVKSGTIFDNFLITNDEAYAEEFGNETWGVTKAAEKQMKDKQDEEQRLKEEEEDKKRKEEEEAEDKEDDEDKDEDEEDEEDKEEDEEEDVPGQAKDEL

[3] = target: T3, CALRdel52 (mutant calreticulin, 52 base pair deletion, Type 1) expressed with MPL on engineered cancer cells (UniProt P27797 18-417); test: flow cytometry on OCI-M2 MPL CALRdel52 cells, 1 h at 37 C, AF647 secondary antibody, Geometric Mean
T3 construct: whole, on cells; On the cell surface in complex with MPL; also called OCI-M2 MPL CALRdel52
T3 sequence (looked up): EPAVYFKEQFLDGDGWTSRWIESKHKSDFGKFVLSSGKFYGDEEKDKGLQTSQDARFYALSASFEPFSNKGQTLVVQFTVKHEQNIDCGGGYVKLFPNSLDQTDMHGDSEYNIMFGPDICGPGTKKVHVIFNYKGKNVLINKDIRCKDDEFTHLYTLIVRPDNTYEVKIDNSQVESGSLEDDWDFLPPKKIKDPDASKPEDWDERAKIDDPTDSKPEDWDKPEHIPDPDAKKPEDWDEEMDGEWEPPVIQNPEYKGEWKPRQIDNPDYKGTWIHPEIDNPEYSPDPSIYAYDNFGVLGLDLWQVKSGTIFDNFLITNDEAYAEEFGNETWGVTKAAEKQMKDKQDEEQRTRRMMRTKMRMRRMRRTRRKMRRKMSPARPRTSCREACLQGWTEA
Method: FIGS. 21A-21F depict binding of different CALRmutxCD3 bispecific antibodies to CALRmut-negative or CALRmut-positive cells. Flow cytometry was used to evaluate CALRmutxCD3 binding to CALRmut-negative and CALRmut-positive cancer cells in vitro. CALRmutxCD3 antibodies were tested on a panel of cell lines, engineered to express MPL and CALRmut, after 1 hour 37° C. incubation, with subsequent incubation with secondary AF647-labeled antibody. Geometric mean fluorescence intensity of AF647 was measured to determine antibody binding.

[4] = target: T4, CALRins5 (mutant calreticulin, 5 base pair insertion, Type 2) expressed with MPL on engineered cancer cells (UniProt P27797 18-417); test: flow cytometry, OCI-M2 and ELF-153 MPL CALRins5 cells
T4 construct: whole, on cells; On the cell surface in complex with MPL; also called OCI-M2 MPL CALRins5
T4 sequence (looked up): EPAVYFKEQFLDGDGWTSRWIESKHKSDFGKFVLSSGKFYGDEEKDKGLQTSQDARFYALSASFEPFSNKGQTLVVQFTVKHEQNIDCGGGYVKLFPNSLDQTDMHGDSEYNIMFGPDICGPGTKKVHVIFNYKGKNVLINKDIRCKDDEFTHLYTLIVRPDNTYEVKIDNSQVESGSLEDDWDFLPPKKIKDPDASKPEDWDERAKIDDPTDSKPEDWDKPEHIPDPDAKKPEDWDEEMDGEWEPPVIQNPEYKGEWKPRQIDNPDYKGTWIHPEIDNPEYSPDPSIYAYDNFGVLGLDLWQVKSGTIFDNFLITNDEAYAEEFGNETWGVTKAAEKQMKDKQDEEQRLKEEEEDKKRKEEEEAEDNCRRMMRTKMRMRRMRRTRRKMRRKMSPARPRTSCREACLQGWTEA

[5] = target: T3, CALRdel52 (mutant calreticulin, 52 base …); test: flow cytometry, OCI-M2 and ELF-153 MPL CALRdel52 cells
[6] = target: T2, wild-type calreticulin (CALRwt) …; test: flow cytometry, OCI-M2 and ELF-153 MPL CALRwt cells

T1 sequence (P07766 23-207): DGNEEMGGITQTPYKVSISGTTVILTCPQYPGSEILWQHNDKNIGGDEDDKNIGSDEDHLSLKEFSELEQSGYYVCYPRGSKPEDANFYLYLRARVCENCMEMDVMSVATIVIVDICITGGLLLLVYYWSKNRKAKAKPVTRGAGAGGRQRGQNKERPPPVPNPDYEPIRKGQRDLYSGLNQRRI

Binder	EC50 (read off the curve) [1]	binding result [2]	EC50 (read off the curve) [3]	binding result [4]	binding result [5]	binding result [6]
C3CRB127 CALRmut x CD3 bispecific antibody (bispecific antibody, human IgG1, kappa, L234A L235A, Chain A heavy: CALRB1114 Fab heavy part, CD3 spFv (HL), Fc; Chain B heavy: CALRB1114) heavy 1: QVQLVQSGAEVKKPGASVKVSCKASGFSLSSYAMSWVRQAPGQGLEWMGVIDSGGTTYYAQKFQGRVTMTRDTSTSTVYMELSSLRSEDTAVYYCARESYAGYDYYGHPIPYGMEPWGQGTLVTVSSASTKGPSVFPLAPSSKSTSGGTAALGCLVKDYFPEPVTVSWNSGALTSGVHTFPAVLQSSGLYSLSSVVTVPSSSLGTQTYICNVNHKPSNTKVDKKVEPKSCGGGGSGGGGSEVQLVESGGGLVKPGGSLRLSCAASGFTFSRYNMNWVRQAPGCGLEWVSSISTSSNYIYYADSVKGRFTFSRDNAKNSLDLQMSGLRAEDTAIYYCTRGWGPFDYWGQGTLVTVSSGGGSGGSGGCPPCGGSGGDIQMTQSPSSLSASVGDRVTITCRARQSIGTAIHWYQQKPGKAPKLLIKYASESISGVPSRFSGSGSGTDFTLTISSLQPEDFATYYCQQSGSWPYTFGCGTKLEIKEPKSSDKTHTCPPCPAPEAAGGPSVFLFPPKPKDTLMISRTPEVTCVVVSVSHEDPEVKFNWYVDGVEVHNAKTKPREEQYNSTYRVVSVLTVLHQDWLNGKEYKCKVSNKALPAPIEKTISKAKGQPREPQVYTLPPSREEMTKNQVSLWCLVKGFYPSDIAVEWESNGQPENNYKTTPPVLDSDGSFFLYSKLTVDKSRWQQGNVFSCSVMHEALHNHYTQKSLSLSPGK heavy 2: QVQLVQSGAEVKKPGASVKVSCKASGFSLSSYAMSWVRQAPGQGLEWMGVIDSGGTTYYAQKFQGRVTMTRDTSTSTVYMELSSLRSEDTAVYYCARESYAGYDYYGHPIPYGMEPWGQGTLVTVSSASTKGPSVFPLAPSSKSTSGGTAALGCLVKDYFPEPVTVSWNSGALTSGVHTFPAVLQSSGLYSLSSVVTVPSSSLGTQTYICNVNHKPSNTKVDKKVEPKSCDKTHTCPPCPAPEAAGGPSVFLFPPKPKDTLMISRTPEVTCVVVSVSHEDPEVKFNWYVDGVEVHNAKTKPREEQYNSTYRVVSVLTVLHQDWLNGKEYKCKVSNKALPAPIEKTISKAKGQPREPQVYTLPPSREEMTKNQVSLSCAVKGFYPSDIAVEWESNGQPENNYKTTPPVLDSDGSFFLVSKLTVDKSRWQQGNVFSCSVMHEALHNRFTQKSLSLSPGK light: DIQMTQSPSTLSASVGDRVTITCQASQSLYNNKNLAWYQQKPGKAPKLLIYYASALASGVPSRFSGSGSGTEFTLTISSLQPDDFATYYCQGEFNCNSADCNSFGGGTKVEIKRTVAAPSVFIFPPSDEQLKSGTASVVCLLNNFYPREAKVQWKVDNALQSGNSQESVTEQDSKDSTYSLSSTLTLSKADYEKHKVYACEVTHQGLSSPVTKSFNRGEC	~5 nM	no binding	~2 nM	–	–	–
C3CRB136 CALRmut x CD3 bispecific antibody (bispecific antibody, human IgG1, kappa, L234A L235A, Chain B heavy: two CALRB1114 Fab heavy parts in tandem, Fc) scFv: DIQMTQSPSSLSASVGDRVTITCRARQSIGTAIHWYQQKPGCAPKLLIKYASESISGVPSRFSGSGSGTDFTLTISSLQPEDFATYYCQQSGSWPYTFGQGTKLEIKGGGSGGSGGCPPCGGSGGEVQLVESGGGLVKPGGSLRLSCAASGFTFSRYNMNWVRQAPGKGLEWVSSISTSSNYIYYADSVKGRFTFSRDNAKNSLDLQMSGLRAEDTAIYYCTRGWGPFDYWGCGTLVTVSSEPKSSDKTHTCPPCPAPEAAGGPSVFLFPPKPKDTLMISRTPEVTCVVVSVSHEDPEVKFNWYVDGVEVHNAKTKPREEQYNSTYRVVSVLTVLHQDWLNGKEYKCKVSNKALPAPIEKTISKAKGQPREPQVYTLPPSREEMTKNQVSLWCLVKGFYPSDIAVEWESNGQPENNYKTTPPVLDSDGSFFLYSKLTVDKSRWQQGNVFSCSVMHEALHNHYTQKSLSLSPGK heavy: QVQLVQSGAEVKKPGASVKVSCKASGFSLSSYAMSWVRQAPGQGLEWMGVIDSGGTTYYAQKFQGRVTMTRDTSTSTVYMELSSLRSEDTAVYYCARESYAGYDYYGHPIPYGMEPWGQGTLVTVSSASTKGPSVFPLAPSSKSTSGGTAALGCLVKDYFPEPVTVSWNSGALTSGVHTFPAVLQSSGLYSLSSVVTVPSSSLGTQTYICNVNHKPSNTKVDKKVEPKSCGGGGSGGGGSQVQLVQSGAEVKKPGASVKVSCKASGFSLSSYAMSWVRQAPGQGLEWMGVIDSGGTTYYAQKFQGRVTMTRDTSTSTVYMELSSLRSEDTAVYYCARESYAGYDYYGHPIPYGMEPWGQGTLVTVSSASTKGPSVFPLAPSSKSTSGGTAALGCLVKDYFPEPVTVSWNSGALTSGVHTFPAVLQSSGLYSLSSVVTVPSSSLGTQTYICNVNHKPSNTKVDKKVEPKSCDKTHTCPPCPAPEAAGGPSVFLFPPKPKDTLMISRTPEVTCVVVSVSHEDPEVKFNWYVDGVEVHNAKTKPREEQYNSTYRVVSVLTVLHQDWLNGKEYKCKVSNKALPAPIEKTISKAKGQPREPQVYTLPPSREEMTKNQVSLSCAVKGFYPSDIAVEWESNGQPENNYKTTPPVLDSDGSFFLVSKLTVDKSRWQQGNVFSCSVMHEALHNRFTQKSLSLSPGK light: DIQMTQSPSTLSASVGDRVTITCQASQSLYNNKNLAWYQQKPGKAPKLLIYYASALASGVPSRFSGSGSGTEFTLTISSLQPDDFATYYCQGEFNCNSADCNSFGGGTKVEIKRTVAAPSVFIFPPSDEQLKSGTASVVCLLNNFYPREAKVQWKVDNALQSGNSQESVTEQDSKDSTYSLSSTLTLSKADYEKHKVYACEVTHQGLSSPVTKSFNRGEC	–	–	–	binds	binds	no binding
